Experimental data: publication PMC6158172, “A bidentate Polycomb Repressive-Deubiquitinase complex is required for efficient activity on nucleosomes” (Nature Communications, 2018)

B1: Calypso^43–404 (wild type), as in the Calypso^43–404–ASX^207–340 complex [Drosophila melanogaster] / itself (parent)
chain: ADGWLELESDPGLFTLLLKDFGCHDVQVEEVYDLQKPIESPYGFIFLFRWIEERRARRKIVETTAEIFVKDEEAISSIFFAQQVVPNSCATHALLSVLLNCNENNLQLGDTLSRLKTHTKGMSPENKGLAIGNTPELACAHNSHAMPQARRRLERTGAGVSSCRFTGEAFHFVSFVPINGQLFELDGLKPYPMNHGGWEDSEDWTDKFRRVMAERLGIATGEQDIRFNLMAVVPDRRIAITHKLKMLRTNQAIVSGTLQKLLKADEQGESGNGDSQRPDTPTTLLEPSAFTARDLQSLLKNLDTEIAINEQHLADENDRRHMFKVDASRRTHNYDKFICTFLSMLAHQGVLGELVSQHLLPS

Variants of: B1
Assay: SEC-MALLS (Calypso–Calypso dimerisation within the Calypso–ASX complex)
Conditions: with itself; 50 μM; 20 mM HEPES pH 7.5 and 100 mM NaCl; read off a plot

Row | screen value [kDa] | Variant
1 | 77 | ADGWLELESDPGLFTLLLKDFGCHDVQVEEVYDLQKPIESPYGFIFLFRWIEERRARRKIVETTAEIFVKDEEAISSIFFAQQVVPNSCATHALLSVLLNCNENNLQLGDTLSRLKTHTKGMSPENKGLAIGNTPELACAHNSHAMPQARRRLERTGAGVSSCRFTGEAFHFVSFVPINGQLFELDGLKPYPMNHGGWEDSEDWTDKFRRVMAERLGIATGEQDIRFNLMAVVPDRRIAITHKLKRLRTNQAIVSGTLQKLLKADEQGESGNGDSQRPDTPTTLLEPSAFTARDLQSLLKNLDTEIAINEQHLADENDRRHMFKVDASRRTHNYDKFICTFLSMLAHQGVLGELVSQHLLPS [chain 1 M246R]
